Assay results as given in patent US20110318339A1 (FABRUS, published 2011).

B1: Fab H:APFF LTH & L6_IGKJ1*01 (Fab, V domains shown)
VH: QVQLVQSGAEVKKPGASVKVSCKASGYTFTSYYMHWVRQAPGQGLEWMGIILPTGHSTSYAQKFQGRVTMTRDTSTSTVYMELSSLRSEDTAVYYCAREEYAPFSAEYFQFWGQGTLVTVSS
VL: not shown
notes: Fab, kappa light chain; also called H:APFF LTH & L:wt
B2: Fab VH1-46_IGHD6-6*01_IGHJ1*01 S102A/S103P/S104F/H111F I51V/N52L/S54T/G56H & L6_IGKJ1*01 (Fab, V domains shown)
VH: QVQLVQSGAEVKKPGASVKVSCKASGYTFTSYYMHWVRQAPGQGLEWMGIVLPTGHSTSYAQKFQGRVTMTRDTSTSTVYMELSSLRSEDTAVYYCAREEYAPFSAEYFQFWGQGTLVTVSS
VL: not shown
notes: Fab made in E. coli: VH on CH1 with His6 and Flag tags (Plasmid A), VL on kappa CL (Plasmid C); also called H: APFF VLTH & L: wt
B3: Fab VH1-46_IGHD6-6*01_IGHJ1*01 S102A/S103P/S104F/H111F I51N/N52L/S54T/G56H & L6_IGKJ1*01 (Fab, V domains shown)
VH: QVQLVQSGAEVKKPGASVKVSCKASGYTFTSYYMHWVRQAPGQGLEWMGINLPTGHSTSYAQKFQGRVTMTRDTSTSTVYMELSSLRSEDTAVYYCAREEYAPFSAEYFQFWGQGTLVTVSS
VL: not shown
notes: Fab made in E. coli: VH on CH1 with His6 and Flag tags (Plasmid A), VL on kappa CL (Plasmid C); also called H: APFF NLTH & L: wt
B4: Fab H:APFF TV & L6_IGKJ1*01 (Fab, V domains shown)
VH: QVQLVQSGAEVKKPGASVKVSCKASGYTFTSYYMHWVRQAPGQGLEWMGITVPSGGSTSYAQKFQGRVTMTRDTSTSTVYMELSSLRSEDTAVYYCAREEYAPFSAEYFQFWGQGTLVTVSS
VL: not shown
notes: Fab, kappa light chain; also called H:APFF TV & L:wt; APFF I51T/N52V
B5: Fab H:APFF NLTH & L6_IGKJ1*01 (Fab, V domains shown)
VH: QVQLVQSGAEVKKPGASVKVSCKASGYTFTSYYMHWVRQAPGQGLEWMGINLPTGHSTSYAQKFQGRVTMTRDTSTSTVYMELSSLRSEDTAVYYCAREEYAPFSAEYFQFWGQGTLVTVSS
VL: not shown
notes: Fab, kappa light chain; also called H:APFF NLTH & L:wt
B6: Fab VH1-46_IGHD6-6*01_IGHJ1*01 S102A/S103P/S104F/H111F I51T/N52V & L6_IGKJ1*01 (Fab, V domains shown)
VH: QVQLVQSGAEVKKPGASVKVSCKASGYTFTSYYMHWVRQAPGQGLEWMGITVPSGGSTSYAQKFQGRVTMTRDTSTSTVYMELSSLRSEDTAVYYCAREEYAPFSAEYFQFWGQGTLVTVSS
VL: not shown
notes: Fab made in E. coli: VH on CH1 with His6 and Flag tags (Plasmid A), VL on kappa CL (Plasmid C); also called H: APFF TV & L: wt; APFF I51T/N52V
B7: Fab VH1-46_IGHD6-6*01_IGHJ1*01 S102A/S103P/S104F/H111F & L6_IGKJ1*01 S28N/S30D/S31H A55G (Fab, V domains shown)
VH: QVQLVQSGAEVKKPGASVKVSCKASGYTFTSYYMHWVRQAPGQGLEWMGIINPSGGSTSYAQKFQGRVTMTRDTSTSTVYMELSSLRSEDTAVYYCAREEYAPFSAEYFQFWGQGTLVTVSS
VL: EIVLTQSPATLSLSPGERATLSCRASQNVDHYLAWYQQKPGQAPRLLIYDASNRGTGIPARFSGSGSGTDFTLTISSLEPEDFAVYYCQQRSNWPPWTFGQGTKVEIKR
notes: Fab made in E. coli: VH on CH1 with His6 and Flag tags (Plasmid A), VL on kappa CL (Plasmid C); also called H: APFF & L: NDH A55G
B8: Fab VH1-46_IGHD6-6*01_IGHJ1*01 S102A/S103P/S104F/H111F I51E/N52L/S54T/G56H & L6_IGKJ1*01 (Fab, V domains shown)
VH: QVQLVQSGAEVKKPGASVKVSCKASGYTFTSYYMHWVRQAPGQGLEWMGIELPTGHSTSYAQKFQGRVTMTRDTSTSTVYMELSSLRSEDTAVYYCAREEYAPFSAEYFQFWGQGTLVTVSS
VL: not shown
notes: Fab made in E. coli: VH on CH1 with His6 and Flag tags (Plasmid A), VL on kappa CL (Plasmid C); also called H: APFF ELTH & L: wt
B9: Fab H:APFF TLATH & L6_IGKJ1*01 (Fab, V domains shown)
VH: QVQLVQSGAEVKKPGASVKVSCKASGYTFTSYYMHWVRQAPGQGLEWMGITLATGHSTSYAQKFQGRVTMTRDTSTSTVYMELSSLRSEDTAVYYCAREEYAPFSAEYFQFWGQGTLVTVSS
VL: not shown
notes: Fab, kappa light chain; also called H:APFF TLATH & L:wt
B10: Fab VH1-46_IGHD6-6*01_IGHJ1*01 S102A/S103P/S104F/H111F & L6_IGKJ1*01 S28N/S30D/S31H A55S (Fab, V domains shown)
VH: QVQLVQSGAEVKKPGASVKVSCKASGYTFTSYYMHWVRQAPGQGLEWMGIINPSGGSTSYAQKFQGRVTMTRDTSTSTVYMELSSLRSEDTAVYYCAREEYAPFSAEYFQFWGQGTLVTVSS
VL: EIVLTQSPATLSLSPGERATLSCRASQNVDHYLAWYQQKPGQAPRLLIYDASNRSTGIPARFSGSGSGTDFTLTISSLEPEDFAVYYCQQRSNWPPWTFGQGTKVEIKR
notes: Fab made in E. coli: VH on CH1 with His6 and Flag tags (Plasmid A), VL on kappa CL (Plasmid C); also called H: APFF & L: NDH A55S
B11: Fab VH1-46_IGHD6-6*01_IGHJ1*01 S102A/S103P/S104F/H111F I51T/N52L/P53A/S54T/G56H & L6_IGKJ1*01 (Fab, V domains shown)
VH: QVQLVQSGAEVKKPGASVKVSCKASGYTFTSYYMHWVRQAPGQGLEWMGITLATGHSTSYAQKFQGRVTMTRDTSTSTVYMELSSLRSEDTAVYYCAREEYAPFSAEYFQFWGQGTLVTVSS
VL: not shown
notes: Fab made in E. coli: VH on CH1 with His6 and Flag tags (Plasmid A), VL on kappa CL (Plasmid C); also called H: APFF TLATH & L: wt
B12: Fab VH1-46_IGHD6-6*01_IGHJ1*01 S102A/S103P/S104F/H111F N52L/S54T/G56H & L6_IGKJ1*01 (Fab, V domains shown)
VH: QVQLVQSGAEVKKPGASVKVSCKASGYTFTSYYMHWVRQAPGQGLEWMGIILPTGHSTSYAQKFQGRVTMTRDTSTSTVYMELSSLRSEDTAVYYCAREEYAPFSAEYFQFWGQGTLVTVSS
VL: not shown
notes: Fab made in E. coli: VH on CH1 with His6 and Flag tags (Plasmid A), VL on kappa CL (Plasmid C); also called H: APFF LTH & L: wt
B13: Fab H:APFF VLTH & L6_IGKJ1*01 (Fab, V domains shown)
VH: QVQLVQSGAEVKKPGASVKVSCKASGYTFTSYYMHWVRQAPGQGLEWMGIVLPTGHSTSYAQKFQGRVTMTRDTSTSTVYMELSSLRSEDTAVYYCAREEYAPFSAEYFQFWGQGTLVTVSS
VL: not shown
notes: Fab, kappa light chain; also called H:APPF VLTH; H:APFF VLTH & L:wt

Experiments:
[1] = target: T1, Recombinant Human DLL4 (Cat# 1506-D4/CF, R&D Systems) (human, UniProt Q9NR61 27-529); assay: ELISA, DLL4 coated, estimated from dose-dependent binding
T1 construct: Bought protein; also called rHuman DLL4; hDLL4
Description: (§1) The plate was blocked by adding 1% BSA in Tris-buffered Saline Tween (TBST) and incubating for 1 hour at room temperature followed by washing 2 times with 150 μl TBST. A Fab antibody was serially diluted in 1% BSA in PBS. A 50 μl aliquot of each serial dilution was added, in triplicate, to each well and the plate was incubated for 1 hour at room temperature followed by washing 2 times with TBST. 50 μl of either goat anti-human kappa HRP conjugated secondary antibody (Cat # A7164-1 mL, Sigma-Aldrich) or goat anti-human lambda HRP conjugated secondary antibody (Cat # L1645-1 ml, Sigma-Aldrich), diluted 1:1000 in 1% BSA in PBS, was added to each well and the plate was incubated for 30 minutes at room temperature followed by washing 3 times with 200 μl TBST. Finally, 50 μl TMB one-component reagent (Cat # TMBW-1000-01, BioFax) was added and allowed to develop for 2 minutes at room temperature. The reaction was immediately halted by the addition of 50 μl 0.5M H₂SO₄ and the absorbance at 450 nm was measured using an ELISA plate reader.

[2] = target: T2, recombinant human DLL4 (Cat# 1506-D4/CF, R&D Systems) (human, UniProt Q9NR61 27-529); assay: ELISA, DLL4 coated, Fab 5 nM
T2 construct: Bought protein; also called hDLL4; rHuman DLL4
Description: as §1

[3] = target: T2, recombinant human DLL4 (Cat# …); assay: ELISA, DLL4 coated, Fab 10 nM
Description: as §1

[4] = target: T2, recombinant human DLL4 (Cat# …); assay: ELISA, DLL4 coated, Fab 20 nM
Description: as §1

[5] = target: T2, recombinant human DLL4 (Cat# …); assay: ELISA, DLL4 coated, Fab 1.3 nM
Description: as §1

[6] = target: T2, recombinant human DLL4 (Cat# …); assay: ELISA, DLL4 coated, Fab 2.5 nM
Description: as §1

[7] = target: T2, recombinant human DLL4 (Cat# …); assay: ELISA, DLL4 coated, Fab 0.16 nM
Description: as §1

[8] = target: T2, recombinant human DLL4 (Cat# …); assay: ELISA, DLL4 coated, Fab 0.31 nM
Description: as §1

[9] = target: T2, recombinant human DLL4 (Cat# …); assay: ELISA, DLL4 coated, Fab 0.63 nM
Description: as §1

[10] = target: T2, recombinant human DLL4 (Cat# …); assay: ELISA, DLL4 coated, Fab 50 nM
Description: as §1

[11] = target: T2, recombinant human DLL4 (Cat# …); assay: ELISA, DLL4 coated, Fab 25 nM
Description: as §1

[12] = target: T2, recombinant human DLL4 (Cat# …); assay: ELISA, DLL4 coated, Fab 100 nM
Description: as §1

[13] = target: T2, recombinant human DLL4 (Cat# …); assay: ELISA, DLL4 coated, Fab 12.5 nM
Description: as §1

[14] = target: T2, recombinant human DLL4 (Cat# …); assay: ELISA, DLL4 coated, Fab 6.25 nM
Description: as §1

[15] = target: T2, recombinant human DLL4 (Cat# …); assay: ELISA, DLL4 coated, Fab 3.125 nM
Description: as §1

| Binder | Kd [1] [nM] | ELISA absorbance at 450 nm [2] [A450] | ELISA absorbance at 450 nm [3] [A450] | ELISA absorbance at 450 nm [4] [A450] | ELISA absorbance at 450 nm [5] [A450] | ELISA absorbance at 450 nm [6] [A450] | ELISA absorbance at 450 nm [7] [A450] | ELISA absorbance at 450 nm [8] [A450] | ELISA absorbance at 450 nm [9] [A450] | other results |
| --- | --- | --- | --- | --- | --- | --- | --- | --- | --- | --- |
| B1 | 1 to 10 |  |  |  |  |  |  |  |  |  |
| B2 |  | 2.2 | 1.85 | 2.05 | 0.252 | 1.66 | 1.85 | 2.05 | 0.785 |  |
| B3 |  | 1.75 | 1.36 | 1.63 | 0.143 | 1.17 | 1.36 | 1.63 | 0.419 |  |
| B4 | 10 to 100 |  |  |  |  |  |  |  |  |  |
| B5 | 1 to 10 |  |  |  |  |  |  |  |  |  |
| B6 |  | 0.724 | 0.506 | 0.648 | 0.055 | 0.358 | 0.506 | 0.648 | 0.115 |  |
| B7 |  |  |  |  |  |  |  |  |  | ELISA absorbance at 450 nm [10]: 0.51 A450; ELISA absorbance at 450 nm [11]: 0.316 A450; ELISA absorbance at 450 nm [12]: 0.814 A450; ELISA absorbance at 450 nm [13]: 0.198 A450; ELISA absorbance at 450 nm [14]: 0.125 A450; ELISA absorbance at 450 nm [15]: 0.093 A450 |
| B8 |  | 2.33 | 2.17 | 2.29 | 0.402 | 1.98 | 2.17 | 2.29 | 1.01 |  |
| B9 | > 100 |  |  |  |  |  |  |  |  |  |
| B10 |  |  |  |  |  |  |  |  |  | ELISA absorbance at 450 nm [10]: 0.588 A450; ELISA absorbance at 450 nm [11]: 0.407 A450; ELISA absorbance at 450 nm [12]: 0.858 A450; ELISA absorbance at 450 nm [13]: 0.258 A450; ELISA absorbance at 450 nm [14]: 0.154 A450; ELISA absorbance at 450 nm [15]: 0.108 A450 |
| B11 |  | 1.27 | 0.875 | 1.11 | 0.078 | 0.592 | 0.875 | 1.11 | 0.227 |  |
| B12 |  | 2.48 | 2.35 | 2.4 | 0.653 | 2.15 | 2.35 | 2.4 | 1.37 |  |
| B13 | 1 to 10 |  |  |  |  |  |  |  |  |  |
